Measured values as given in US20260098070A1 (DEM BIOPHARMA, published 2026).
No end group written: not given here. *: point of attachment. Biotin = O=C1N[C@H]2[C@H](CS[C@H]2CCCCC(=O)*)N1

Experiments:
[1] = molecular target: CLEC10A expressed on transfected HEK293 cells (human) (UniProt Q8IUN9); assay: flow cytometry, live HEK293 transfectants, 5 µg/mL probe in PBS+Ca2+/Mg2+, AF647 anti-human Fc
[2] = molecular target: T1, CD177 ECD-Fc (CD177 extracellular domain with Fc tag) (UniProt Q8N6Q3 22-408, limits assumed); assay: ELISA, immobilized CD177 ECD-Fc, biotinylated peptide pre-incubated with HRP-streptavidin
T1 construct: extracellular domain; also called CD177-Fc; recombinant CD177 ECD; not shown: Fc tag
T1 sequence (looked up): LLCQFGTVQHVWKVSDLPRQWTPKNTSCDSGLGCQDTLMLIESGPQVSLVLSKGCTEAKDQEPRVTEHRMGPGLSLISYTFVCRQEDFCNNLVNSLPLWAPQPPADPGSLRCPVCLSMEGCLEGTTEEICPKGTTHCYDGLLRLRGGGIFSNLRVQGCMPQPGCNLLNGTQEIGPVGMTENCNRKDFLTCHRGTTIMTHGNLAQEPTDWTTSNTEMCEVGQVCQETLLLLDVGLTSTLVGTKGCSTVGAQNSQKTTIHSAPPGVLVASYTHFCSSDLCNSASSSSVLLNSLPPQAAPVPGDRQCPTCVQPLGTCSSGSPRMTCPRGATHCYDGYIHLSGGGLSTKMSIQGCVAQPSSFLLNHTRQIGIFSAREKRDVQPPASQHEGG
Experimental: To evaluate the binding of aglycosylated hSMAGP ECD to CD177, an hSMAGP ECD peptide (H2N-[…]-Biotin-amide (SEQ ID NO: 62)) was chemically synthesized. An extra lysine residue was added to the C terminus to facilitate biotinylation. Another peptide, with a scrambled hSMAGP ECD sequence (H2N-[…]-Biotin-amide (SEQ ID NO: 63)), was synthesized as a control. Peptide binding to the recombinant CD177 ECD-Fc (CD177 extracellular domain with Fc tag) or hIgG1-Fc (IgG1 domain with Fc tag) negative control was evaluated in an enzyme-linked immunosorbent assay (ELISA). CD177 ECD-Fc and hIgG1-Fc were immobilized to separate Corning 96-well Clear Flat Bottom Polystyrene High Bind Microplates at 4° C. overnight in PBS. Plates were blocked using 5% skim milk. Biotinylated hSMAGP ECD peptide or the scrambled control (10 μg/ml) was pre-incubated with HRP-conjugated streptavidin (5 μg/ml) and added to the plates. In a control assay, an anti-CD177 antibody (Biolegend Cat #315802; 10 μg/ml) was premixed with the biotinylated SMAGP ECD peptide. The signal was developed using TMB substrate. The assay was performed in triplicate.

Chain of CLEC10A expressed on transfected HEK293 cells (human) (Q8IUN9 whole entry, the tested form may be a part): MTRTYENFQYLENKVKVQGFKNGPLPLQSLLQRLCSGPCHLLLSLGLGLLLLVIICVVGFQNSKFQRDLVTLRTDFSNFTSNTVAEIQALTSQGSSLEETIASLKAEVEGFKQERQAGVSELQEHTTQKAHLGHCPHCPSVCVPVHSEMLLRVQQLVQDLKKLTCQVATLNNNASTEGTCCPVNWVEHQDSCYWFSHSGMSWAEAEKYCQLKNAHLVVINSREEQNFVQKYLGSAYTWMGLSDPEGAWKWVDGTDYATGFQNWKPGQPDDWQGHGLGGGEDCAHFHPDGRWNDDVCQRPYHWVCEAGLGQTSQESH

Row | Molecule | fold change in median fluorescence intensity over control cells [1] [fold] | binding result [2]
1 | hSMAGP ECD-hIgG1 Fc (Fc fusion) | 3.3 | –
2 | TRTTLIMESTTPALMLLEPLGSPQDAPTSTEEAPSLK(Biotin)-NH2 (N-terminus assumed; SMILES CC[C@H](C)[C@H](NC(=O)[C@H](CC(C)C)NC(=O)[C@@H](NC(=O)[C@@H](NC(=O)[C@H](CCCNC(=N)N)NC(=O)[C@@H](N)[C@@H](C)O)[C@@H](C)O)[C@@H](C)O)C(=O)N[C@@H](CCSC)C(=O)N[C@@H](CCC(=O)O)C(=O)N[C@@H](CO)C(=O)N[C@H](C(=O)N[C@H](C(=O)N1CCC[C@H]1C(=O)N[C@@H](C)C(=O)N[C@@H](CC(C)C)C(=O)N[C@@H](CCSC)C(=O)N[C@@H](CC(C)C)C(=O)N[C@@H](CC(C)C)C(=O)N[C@@H](CCC(=O)O)C(=O)N1CCC[C@H]1C(=O)N[C@@H](CC(C)C)C(=O)NCC(=O)N[C@@H](CO)C(=O)N1CCC[C@H]1C(=O)N[C@@H](CCC(N)=O)C(=O)N[C@@H](CC(=O)O)C(=O)N[C@@H](C)C(=O)N1CCC[C@H]1C(=O)N[C@H](C(=O)N[C@@H](CO)C(=O)N[C@H](C(=O)N[C@@H](CCC(=O)O)C(=O)N[C@@H](CCC(=O)O)C(=O)N[C@@H](C)C(=O)N1CCC[C@H]1C(=O)N[C@@H](CO)C(=O)N[C@@H](CC(C)C)C(=O)N[C@@H](CCCCNC(=O)CCCC[C@@H]1SC[C@@H]2NC(=O)N[C@@H]21)C(N)=O)[C@@H](C)O)[C@@H](C)O)[C@@H](C)O)[C@@H](C)O, Pre-incubated with HRP-conjugated streptavidin before addition to the plates; also called scrambled control) [aglycosylated scrambled hSMAGP ECD peptide] | – | no binding (tested: 10 µg/ml)
